# Biological target: Laminin 421/521
# Test: phage display, NGS count
row,Binder,Count
1,WSPANGWRHQTI,36
2,NWTHLGVARLQP,36
3,HSFLGAR,44
4,WGANTTGRTHGG,40
5,CWSGNSRSC,42
6,ETYKVTRVISPW,50
7,LARSSIMAANNV,42
8,QTFHEYLNPARG,37
9,CKWTQLWGC,40
10,GDLLLKR,47
11,CLHNGQRSC,37
12,AWNGNRS,47
13,EGHVWSEYTWGT,50
14,YHLGPNQKMRTS,48
15,ASHSRPLMNYAP,49
16,AHAAGRDMRQGT,36
17,AKTQAPSNWSGV,43
18,GHRTLVTSERYL,38
19,LGHQNGGRADMW,35
20,TFAAAQAELIMV,38
21,QTRWDDGSYQIS,49
22,GWIQDTFVLGRS,40
23,WEEHRVEILPDV,38
24,GGGYHIFGPLVT,43
25,SYDGTMLKQVRL,36
26,CTPRSATLC,37

# The next lines start with the values.
row,Count,Binder
1,43,CTGRISKHC
2,38,AQRMNQA
3,40,GQPRNIHLPGTH
4,40,ANRYLAS
5,35,WAYTDYM
6,40,GSTTHPHFGLPG
7,49,SLAVANTRFMIR
8,38,LGPSTQGAGQTR
9,42,FPLKIRT
10,36,DVIHSSRGAYFE
11,40,CLKDTHLNC
12,37,SLNTTWVSPMMK
13,43,GAMMNSNNLVAR
14,44,QTLQTRH
15,37,DIMKSPRSNLRS
16,45,CTSKLARHC
17,43,CSVWNSGNC
18,45,CNHLTQKLC
19,44,LLAGPFR
20,38,GDAQILM
21,47,VPQIRIK
22,40,QGHPFIY
23,35,MTNSGAK
24,36,WQWRSTELGYRY
25,45,ALGGEPRKAYQR
26,42,CFQPKMNSC
27,47,ADMPQMTLKYGV
28,40,SNPKHVSSLGQM
29,42,AQGVWWSEWFAP
30,48,SWQMRSY
